Data: US6403769

Key:
[1] = target: KGFR-HFc fusion protein (construct not specified); experiment: binding of 125I-KGF to KGFR-HFc in solution, capture on Gamma Bind G
[2] = target: keratinocyte growth factor receptor (KGFR) (UniProt P21803); experiment: competition with 125I-KGF on 32D cells expressing KGFR
[3] = target: keratinocyte growth factor receptor (KGFR) (UniProt P21803); experiment: cell-based or functional assay

ligand concentration at which saturable binding was achieved [1]: 15 to 25 ng/mL
Kd [2]: 130 pM
half-maximal stimulation of 3H-thymidine uptake in BALB/MK cells [3]: 10 pM
B1: keratinocyte growth factor (KGF) (ligand, human, UniProt P21781 32-194, looked up)
chain: CNDMTPEQMATNVNCSSPERHTRSYDYMEGGDIRVRRLFCRTQWYLRIDKRGKVKGTQEMKNNYNIMEIRTVAVGIVAIKGVESEFYLAMNKEGKLYAKKECNEDCNFKELILENHYNTYASAKWTHNGGEMFVALNQKGIPVRGKKTKKEQKTAHFLPMAIT
